Reference: patent US20210283212A1 (RA PHARMACEUTICALS, published 2021)
Starred links: 1 amine or outer side, 2 acyl side, 3 side chain; linkers in the order of their positions; H or OH if unused. Positions of bridges follow the written chain, without caps; N, C: chain ends. Non-standard residues stand in square brackets, D forms with d. Primed or numbered codes have the meaning given here. *: point of attachment. mXylyl(3) = bridging moiety between the two residues given in brackets; mXylyl″ = bridging moiety between the two marked residues; Trp(7-aza) = N[C@@H](Cc1c[nH]c2ncccc12)C(=O)O; Phe(3-Cl) = N[C@@H](Cc1cccc(Cl)c1)C(=O)O; Tiq1c(1S) = O=C(O)[C@H]1NCCc2ccccc21; pXylylene = c1cc(C[*:2])ccc1C[*:1]; dPhg = N[C@@H](C(=O)O)c1ccccc1; Phg = N[C@H](C(=O)O)c1ccccc1; Tle = CC(C)(C)[C@H](N)C(=O)O; NMeS = CN[C@@H](CO)C(=O)O; hCys = N[C@@H](CCS)C(=O)O; Heptanoyl = CCCCCCC(=O)*; Nle = CCCC[C@H](N)C(=O)O; Nva = CCC[C@H](N)C(=O)O; Sar = CNCC(=O)O

biological target: human C5 protein (human, UniProt P01031 19-673; P01031 678-1676); test: cell-based or functional assay

| Binder | Avg. IC50, human hemolysis assay [µM] |
| --- | --- |
| Ac-[Nva][hCys][Phg]T[Trp(7-aza)]EY[NMeS]H[hCys][Nva]-NH2 (linker 2-10 via pXylylene; SMILES CCC[C@H](NC(=O)[C@@H]1CCSCc2ccc(cc2)CSCC[C@H](NC(=O)[C@H](CCC)NC(C)=O)C(=O)N[C@@H](c2ccccc2)C(=O)N[C@@H]([C@@H](C)O)C(=O)N[C@@H](Cc2c[nH]c3ncccc23)C(=O)N[C@@H](CCC(=O)O)C(=O)N[C@@H](Cc2ccc(O)cc2)C(=O)N(C)[C@@H](CO)C(=O)N[C@@H](Cc2c[nH]cn2)C(=O)N1)C(N)=O) [R3108] | > 75 |
| VCGTWEYSHGCV (not fully specified; [mXylyl(2,10)]Ac-Nvl-C-Phg-T-azaTrp-E-Y-(N-Me)S-H-G-C-Nvl-NH2) [R3101] | > 100 |
| Ac-[Nva]C[Tiq1c(1S)]T[Trp(7-aza)]EY[NMeS]HC[Nva]-NH2 (linker 2-10 via mXylyl(3)) [R3122] | > 50 |
| Ac-Y[Nva]C[Phg]T[Trp(7-aza)]EY[NMeS]HC[Nva]-NH2 (linker 3-11 via mXylyl(3)) [R3113] | > 5 |
| Ac-[Nva]CYE[Sar][Tle]Y[Trp(7-aza)]EC[Nva]P[Nva]-NH2 (linker 2-10 via mXylyl″) [R3009] | > 100 |
| Ac-[Nva]C[Phg]T[Trp(7-aza)]EY[NMeS]HC[Nva]-NH2 (linker 2-10 via mXylyl″) [R3012] | 0.148 |
| Ac-[Nva][hCys][Phg]T[Trp(7-aza)]EY[NMeS]H[hCys][Nva]-NH2 (linker 2-10 via mXylyl(3)) [R3107] | > 75 |
| Ac-[Nle]C[Phg]T[Trp(7-aza)]EY[NMeS]HC[Nva]-NH2 (linker 2-10 via mXylyl(3)) [R3112] | > 5 |
| Ac-[Nva]C[Phg]T[Trp(7-aza)]EY[NMeS]H[hCys][Nva]-NH2 (linker 2-10 via mXylyl(3)) [R3105] | > 5 |
| Ac-[Nva]C[Phg]T[Trp(7-aza)]EY[NMeS]H[hCys][Nva]-NH2 (linker 2-10 via pXylylene; SMILES CCC[C@H](NC(=O)[C@@H]1CCSCc2ccc(cc2)CSC[C@H](NC(=O)[C@H](CCC)NC(C)=O)C(=O)N[C@@H](c2ccccc2)C(=O)N[C@@H]([C@@H](C)O)C(=O)N[C@@H](Cc2c[nH]c3ncccc23)C(=O)N[C@@H](CCC(=O)O)C(=O)N[C@@H](Cc2ccc(O)cc2)C(=O)N(C)[C@@H](CO)C(=O)N[C@@H](Cc2c[nH]cn2)C(=O)N1)C(N)=O) [R3106] | > 5 |
| Heptanoyl-[Nva]C[dPhg]T[Trp(7-aza)]EY[NMeS]AC[Nva]-NH2 (linker 2-10 via mXylyl(3)) [R3136] | > 50 |
| Ac-[Nva]CYNN[Tle]E[Trp(7-aza)]ECP[Phg][Tle]-NH2 (linker 2-10 via mXylyl(3)) [R3127] | > 75 |
| Ac-[Nva][hCys][Phg]T[Trp(7-aza)]EY[NMeS]HC[Nva]-NH2 (linker 2-10 via mXylyl(3)) [R3103] | > 25 |
| Ac-[Nva]T[Phg]C[Trp(7-aza)]EY[NMeS]AC[Nva]-NH2 (linker 4-10 via mXylyl(3)) [R3111] | > 5 |
| Ac-[Nva]C[Phg]T[Trp(7-aza)]EY[NMeS][dA]C[Nva]-NH2 (linker 2-10 via mXylyl(3)) [R3135] | > 25 |
| Ac-[Nva]C[Phg][dA][Trp(7-aza)]EY[NMeS]HC[Nva]-NH2 (linker 2-10 via mXylyl(3)) [R3133] | > 75 |
| Ac-[Nva]C[Phg]T[Trp(7-aza)]E[Phe(3-Cl)][NMeS]AC[Nva]-NH2 (linker 2-10 via mXylyl(3)) [R3134] | > 5 |
| Ac-[Nva]C[Phg]T[Trp(7-aza)]EY[NMeS]HC[Nva]P-NH2 (linker 2-10 via mXylyl″) [R3011] | 0.112 |
| Ac-[Nva]C[Phg]T[Trp(7-aza)]EYPHC[Nva]-NH2 (linker 2-10 via mXylyl(3)) [R3102] | 0.978 |
| Ac-[Nva][hCys][Phg]T[Trp(7-aza)]EY[NMeS]HC[Nva]-NH2 (linker 2-10 via pXylylene; SMILES CCC[C@H](NC(=O)[C@@H]1CSCc2ccc(cc2)CSCC[C@H](NC(=O)[C@H](CCC)NC(C)=O)C(=O)N[C@@H](c2ccccc2)C(=O)N[C@@H]([C@@H](C)O)C(=O)N[C@@H](Cc2c[nH]c3ncccc23)C(=O)N[C@@H](CCC(=O)O)C(=O)N[C@@H](Cc2ccc(O)cc2)C(=O)N(C)[C@@H](CO)C(=O)N[C@@H](Cc2c[nH]cn2)C(=O)N1)C(N)=O) [R3104] | > 2 |
| Ac-[Nva]CYE[Sar][Tle]Y[Trp(7-aza)]E[Nva][Nva]PC-NH2 (linker 2-13 via mXylyl″) [R3010] | > 100 |
| Ac-[Nva]CYKNYH[Trp(7-aza)]EYP[Tle]Y-NH2 (SMILES CCC[C@H](NC(C)=O)C(=O)N[C@@H](CS)C(=O)N[C@@H](Cc1ccc(O)cc1)C(=O)N[C@@H](CCCCN)C(=O)N[C@@H](CC(N)=O)C(=O)N[C@@H](Cc1ccc(O)cc1)C(=O)N[C@@H](Cc1c[nH]cn1)C(=O)N[C@@H](Cc1c[nH]c2ncccc12)C(=O)N[C@@H](CCC(=O)O)C(=O)N[C@@H](Cc1ccc(O)cc1)C(=O)N1CCC[C@H]1C(=O)N[C@H](C(=O)N[C@@H](Cc1ccc(O)cc1)C(N)=O)C(C)(C)C) [R3000] | > 10 |
| Ac-[Nva]CYNN[Tle]E[Trp(7-aza)]ECP[Phg][Tle]-NH2 (cysteine pairing not given here) [R3126] | > 3 |
